# Assay results from IntAct's records for PubMed 12717434.
# B1: Multiple coagulation factor deficiency protein 2 (Homo sapiens), Q8NI22 (parent)
# chain: MTMRSLLRTPFLCGLLWAFCAPGARAEEPAASFSQPGSMGLDKNTVHDQEHIMEHLEGVINKPEAEMSPQELQLHYFKMHDYDGNNLLDGLELSTAITHVHKEEGSEQAPLMSEDELINIIDGVLRDDDKNNDGYIDYAEFAKSLQ
# partner: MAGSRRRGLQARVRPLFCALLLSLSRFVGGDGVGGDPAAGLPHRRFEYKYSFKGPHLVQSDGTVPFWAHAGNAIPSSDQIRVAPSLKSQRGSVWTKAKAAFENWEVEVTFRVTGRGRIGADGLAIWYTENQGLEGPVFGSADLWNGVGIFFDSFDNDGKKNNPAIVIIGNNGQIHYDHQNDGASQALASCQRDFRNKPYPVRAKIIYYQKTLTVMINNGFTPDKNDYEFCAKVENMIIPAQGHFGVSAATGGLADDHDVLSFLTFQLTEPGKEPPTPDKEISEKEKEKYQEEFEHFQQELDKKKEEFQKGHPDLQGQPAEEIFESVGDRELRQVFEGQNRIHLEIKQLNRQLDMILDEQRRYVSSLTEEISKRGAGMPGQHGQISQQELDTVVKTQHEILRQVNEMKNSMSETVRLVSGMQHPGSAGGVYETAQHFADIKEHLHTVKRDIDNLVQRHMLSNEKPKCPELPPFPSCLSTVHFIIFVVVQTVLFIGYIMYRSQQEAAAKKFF
# Variants of: B1
# Details: with lman1_chlae LMAN1, Q9TU32
row,effect of a mutation on the interaction,Variant
1,decreasing interaction strength,MTMRSLLRTPFLCGLLWAFCAPGARAEEPAASFSQPGSMGLDKNTVHDQEHIMEHLEGVINKPEAEMSPQELQLHYFKMHDYDGNNLLDGLELSTAITHVHKEEGSEQAPLMSEDELINIIDGVLRDDDKNNDGYVDYAEFAKSLQ [I136V]
2,disrupting interaction strength,MTMRSLLRTPFLCGLLWAFCAPGARAEEPAASFSQPGSMGLDKNTVHDQEHIMEHLEGVINKPEAEMSPQELQLHYFKMHDYDGNNLLDGLELSTAITHVHKEEGSEQAPLMSEDELINIIDGVLRDDDKNNDGYTDYAEFAKSLQ [I136T]
3,disrupting interaction strength,MTMRSLLRTPFLCGLLWAFCAPGARAEEPAASFSQPGSMGLDKNTVHDQEHIMEHLEGVINKPEAEMSPQELQLHYFKMHDYDGNNLLDGLELSTAITHVHKEEGSEQAPLMSEDELINIIDGVLRDDEKNNDGYIDYAEFAKSLQ [D129E]
